Test system: wild-type human IDO1

Substance: human Src Y530F
- tyrosine phosphorylation of human IDO1 Tyr249 (ITIM2), western blot of SW837 IDO1WT lysate: Expression of human Src Y530F in SW837 IDO1WT cells was shown to enhance tyrosine phosphorylation of human IDO1 Tyr249 (ITIM2)
